Measurements from US20240270861A1 (DRAGONFLY THERAPEUTICS, published 2024).
Positions count from the first letter of the chain named. Each block holds one binder with its values, some of them ahead of it.

What was measured:
[1] = molecular target: T1, hBAFF-R-hFc-His fusion protein (human, UniProt Q96RJ3 1-78, biotinylated where used as yeast display probe); assay: yeast display flow cytometry after challenge: 100 pM hBAFFR-Fc biotin for 1hr at RT, then 1 mM nonbiotinylated hBAFFR-Fc (as printed on the sheet)
T1 construct: also called hBAFFR-Fc; biotinylated hBAFF-R-hFc-His

cynomolgus CD16 = molecular target: T2, cynomolgus CD16 (cynomolgus monkey, UniProt Q8SPW2 17-208); assay: SPR, kinetics fit
T2 construct: also called cyno CD16; FcγRIII (cynomolgus)
T2 sequence (Q8SPW2 17-208 limits assumed): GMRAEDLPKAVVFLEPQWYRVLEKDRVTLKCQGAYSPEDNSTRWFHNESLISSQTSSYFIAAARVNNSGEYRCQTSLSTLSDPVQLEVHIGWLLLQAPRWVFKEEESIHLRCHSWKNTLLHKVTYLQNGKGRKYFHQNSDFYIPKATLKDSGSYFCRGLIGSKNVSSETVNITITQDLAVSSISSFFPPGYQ

human CD16a V158 = molecular target: T3, human CD16a V158 (human, UniProt P08637 17-208); assay: SPR, qualitative (Table 40 not given)
T3 construct: Recombinant receptor in SPR; in the cytotoxicity assays expressed on KHYG-1-CD16aV cells; also called hCD16aV; hCD16a V158
T3 sequence (P08637 17-208 F176V limits assumed): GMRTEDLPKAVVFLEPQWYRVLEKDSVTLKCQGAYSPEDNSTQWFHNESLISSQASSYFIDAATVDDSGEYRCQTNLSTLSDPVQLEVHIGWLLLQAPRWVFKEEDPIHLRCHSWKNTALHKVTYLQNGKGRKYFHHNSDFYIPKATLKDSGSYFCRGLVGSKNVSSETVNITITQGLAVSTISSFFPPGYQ

Iana (drawn gate) [1]: 23.4 % (unit not printed)
B1: AB1080scFv displayed on yeast (scFv, V domains shown)
VH: EVQLVQSGGGVVQPGRSLRLSCAASGFTFSSYGMHWVRQAPGKCLEWVAVIWYDASNKYYGDSVKGRFTISRDNSKNTLYLQMNSLRDEDTAVYYCARRFTHLRGWYIEDYGLDVWGQGTTVTVSS
VL: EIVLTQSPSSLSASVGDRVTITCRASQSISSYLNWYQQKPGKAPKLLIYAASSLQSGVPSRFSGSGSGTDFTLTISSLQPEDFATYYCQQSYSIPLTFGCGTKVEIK
notes: scFv on yeast

Iana (drawn gate) [1]: 7.4 % (unit not printed)
B2: AB1084scFv displayed on yeast (scFv, V domains shown)
VH: B1 VH with S31M, H102R
VL: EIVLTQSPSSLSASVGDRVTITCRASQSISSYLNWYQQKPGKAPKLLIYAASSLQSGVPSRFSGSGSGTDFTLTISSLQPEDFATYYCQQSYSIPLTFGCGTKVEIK
notes: scFv on yeast

Iana (drawn gate) [1]: 27.2 % (unit not printed)
B3: AB1081scFv displayed on yeast (scFv, V domains shown)
VH: B1 VH with T28A, A55E, K76R, H102N, Y107I
VL: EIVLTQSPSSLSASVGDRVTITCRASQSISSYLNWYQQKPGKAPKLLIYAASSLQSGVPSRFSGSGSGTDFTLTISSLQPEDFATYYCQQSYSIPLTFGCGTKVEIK
notes: scFv on yeast

Kd (cynomolgus CD16): 232 nM
B4: AB1424/AB1612 F3′ TriNKET (bispecific antibody, human IgG1, kappa)
chain: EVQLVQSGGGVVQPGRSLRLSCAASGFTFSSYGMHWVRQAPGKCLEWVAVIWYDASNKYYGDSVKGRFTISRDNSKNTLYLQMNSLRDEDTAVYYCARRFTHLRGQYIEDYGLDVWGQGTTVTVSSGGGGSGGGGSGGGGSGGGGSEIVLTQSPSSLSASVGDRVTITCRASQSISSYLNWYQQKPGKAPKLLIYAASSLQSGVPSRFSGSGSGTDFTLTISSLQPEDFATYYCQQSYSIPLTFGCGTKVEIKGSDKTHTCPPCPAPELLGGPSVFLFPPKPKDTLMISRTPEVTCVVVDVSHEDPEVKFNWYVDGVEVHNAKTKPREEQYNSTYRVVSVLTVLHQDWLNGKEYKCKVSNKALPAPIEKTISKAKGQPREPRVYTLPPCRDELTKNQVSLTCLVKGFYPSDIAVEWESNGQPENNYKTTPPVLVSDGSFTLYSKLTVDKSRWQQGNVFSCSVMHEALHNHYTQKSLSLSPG
heavy: EVQLVESGGGLVKPGGSLRLSCAASGFTFSSYSMNWVRQAPGKGLEWVSSISSSSSYIYYADSVKGRFTISRDNAKNSLYLQMNSLRAEDTAVYYCARGAPIGAAAGWFDPWGQGTLVTVSSASTKGPSVFPLAPSSKSTSGGTAALGCLVKDYFPEPVTVSWNSGALTSGVHTFPAVLQSSGLYSLSSVVTVPSSSLGTQTYICNVNHKPSNTKVDKKVEPKSCDKTHTCPPCPAPELLGGPSVFLFPPKPKDTLMISRTPEVTCVVVDVSHEDPEVKFNWYVDGVEVHNAKTKPREEQYNSTYRVVSVLTVLHQDWLNGKEYKCKVSNKALPAPIEKTISKAKGQPREPQVCTLPPSRDELTENQVSLTCLVKGFYPSDIAVEWESNGQPENNYKTTPPVLDSDGSFFLYSWLTVDKSRWQQGNVFSCSVMHEALHNHYTQKSLSLSPG
light: DIQMTQSPSSVSASVGDRVTITCRASQGISSWLAWYQQKPGKAPKLLIYAASSLQSGVPSRFSGSGSGTDFTLTISSLQPEDFATYYCQQGVSFPRTFGGGTKVEIKRTVAAPSVFIFPPSDEQLKSGTASVVCLLNNFYPREAKVQWKVDNALQSGNSQESVTEQDSKDSTYSLSSTLTLSKADYEKHKVYACEVTHQGLSSPVTKSFNRGEC
notes: Chain S anti-BAFF-R scFv-CH2-CH3, Chain H and Chain L anti-NKG2D A49MI Fab; also called AB1612-002

binding result (human CD16a V158): no binding
B5: AB1424/AB1612 F3′ TriNKET FcγRsi (bispecific antibody)
chain: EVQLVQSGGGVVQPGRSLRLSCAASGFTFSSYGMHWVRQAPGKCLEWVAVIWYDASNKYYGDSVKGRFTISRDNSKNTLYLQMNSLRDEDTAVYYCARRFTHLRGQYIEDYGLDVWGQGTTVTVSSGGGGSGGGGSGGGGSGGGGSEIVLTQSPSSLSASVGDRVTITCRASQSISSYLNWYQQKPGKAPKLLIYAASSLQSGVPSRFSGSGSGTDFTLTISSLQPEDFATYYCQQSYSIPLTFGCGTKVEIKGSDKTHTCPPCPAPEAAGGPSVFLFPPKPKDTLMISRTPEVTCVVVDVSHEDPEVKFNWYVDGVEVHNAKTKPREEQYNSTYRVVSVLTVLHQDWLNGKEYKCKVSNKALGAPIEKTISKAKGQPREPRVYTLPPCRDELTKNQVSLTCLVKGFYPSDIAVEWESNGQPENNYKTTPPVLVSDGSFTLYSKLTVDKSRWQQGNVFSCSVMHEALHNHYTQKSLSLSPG
heavy: B4 heavy with L239A, L240A, P334G
light: B4 light
notes: Positions are EU numbers, not positions on the entries; also called AB1424/AB1612 F3′ TriNKET-Fc-si; AB1424/AB1612 F3′ TriNKET-Fc silenced
